Results reported in US20250051443A1 (NATIONAL RESEARCH COUNCIL OF CANADA, published 2025).
Substitutions are numbered along the chain they refer to.

B1: F282-2D5 (antibody, V domains shown)
VH: QVQLQQPGTELVKPGASVKLSCKASGYTFTSYWMHWVKQRPGQGLEWIGNINPSNGGTNYNENFKTKATLTVDKSSSTAYMQLSSLTSEDSAVYYCARDRSGQYYFDYWGQGTTLTVSS
VL: DIVMSQSPSSLAVSAGEKVTMSCKSSQSLLNSRTRKNYLAWYQQKPGQSPKLLIYWASTRESGVPDRFTGSGSGTDFTLTISSVQAEDLAVYYCIQSYHLRTFGGGTILEIK
notes: also called F282-2D5-2
B2: F332-1E2 (antibody, mouse IgG2a, V domains shown)
VH: QVQLQQPGAELGKPGTSVKLSCKASGYTFTSYWIHWVKQRPGQGLEWVGNINPNSGSINYNEKFKNKATLTVDKSSSTAYMQLSTLTSEDFAVYYCTRDTSGQYYFDYWGQGTTLTVSS
VL: B1 VL with K18R, I108K
notes: Sister clone 8C5 shares the same entries; also called F332-1E2-2; F332-1E2 (8C5)
B3: F332-1C9 (antibody, mouse IgG2a, V domains shown)
VH: B2 VH with K19N, I34M, E46D, V48I, S57T, I58T, N66S, F91S, T100I, T114S
VL: B1 VL with T80I, I95K, H99S, I108K
notes: Sister clones 1A10, 5H8, 8B11 share the same entries; also called F332-1C9-2; F332-1C9 (1A10, 5H8, 8B11)
B4: F332-3E9 (antibody, mouse IgG2a, V domains shown)
VH: B2 VH with V37L, V48I, S55G, Y60C, K65T, N66T, V72I
VL: B1 VL with V3M, I95T, I108K
notes: also called F332-3E9-2; F332-3E9 (12G4)
B5: F332-4D6 (antibody, mouse IgG2a, V domains shown)
VH: B2 VH with P7S, V48I, I58T, N66R, V72A
VL: B1 VL with L52V, I95K, I108K
notes: also called F332-4D6-2; F322-4D6
B6: F332-7C9 (antibody, mouse IgG2a, V domains shown)
VH: QVQLQQSGPELVKPGASVRISCKASGYTFTSHYLHWVKQRPGQGFEWIGWIYPGDGNTRYNEKFKDRATLTADKSSSTAYLHLSSLTSEDSAVYFCARDAGYYFDYWGQGTTLAVSS
VL: B1 VL with P50L, L52V, I95K, H99S, I108K
notes: also called F332-7C9-2; F332-7C9 (5C7, 7D10)
B7: F332-7C5 (antibody, mouse IgG2a, V domains shown)
VH: QVQLQQPGAELGKPGTSVKLSCKASGYTFTSYWMHWVKQRPGQGLEWIGNINPSSGITNYNERFKNKATLTVDKSSTTAYMQLSILTSEDSAVYYCSRDISGQYYFNFWGQGTTLTVSS
VL: B1 VL with S71T, I95K, H99N, I108K
notes: also called F332-7C5-2; F332-7C5 (5E12, 10A8)
B8: F332-6D7 (antibody, mouse IgG2a, V domains shown)
VH: B2 VH with K19N, I34M, E46D, V48I, S57T, I58T, N66S, F91S, T100I, T114S
VL: B1 VL with I95K, H99S, T107S, I108K
notes: also called F332-6D7-2; F332-6D7 (7G4)
B9: F332-5F2 (antibody, mouse IgG2b, V domains shown)
VH: QVQLQQPGAELGKPGTSVKLSCKASGYTFTSYWMHWVKQRPGQGLEWIGNINPNGGDSNYNEKFKSKATLTVDKSSSTAYMQLSTLTSEDSAVYYCTRDISGQYYFDFWGQGTSLTVFS
VL: B1 VL with V3L, K18Q, Y55F, E61K, D76Y, I95T, H99N, I108K
notes: also called F332-5F2-2; F332-5F2 (6G8, 13A3)

Each binder was assayed against T1, Cynomolgus CD3 (Cynomolgus, UniProt Q95LI5 22-198; Q95LI7 23-181; Q95LI8 22-171) (assay: apparent KD (KDapp), flow cytometry titration on fresh cynomolgus PBMCs).
T1 construct: whole, on cells; also called CD3 on Cynomolgus PBMCs; CD3 on HSC-F Cynomolgus T cell line
Procedure: (§1) To characterize potential cross-reactivity of the anti-human CD3 mAbs to NHP T cells, dose response flow cytometry titration studies were performed on both freshly obtained Cynomolgus PBMCs (Comparative Medicine and Animal Resources Centre—McGill University) or the Cynomolgus derived T cell line, HSC-F (Non-Human Primate Reagent Resource—NIH). Binding studies on fresh Cynomolgus PBMCs was performed on a subset of anti-CD3 mAbs (FIG. 4) whereas the Herpesvirus saimiri immortalized Cynomolgus T cell line HSC-F was employed for further evaluations (FIGS. 5A to 5C). KDapp values were calculated using a non-linear regression model of one-site binding with Hill slope (GraphPad Prism) and tabulated (Table 3b). Similar KDapp values for anti-CD3 mAb 1E2 obtained from binding to fresh Cynomolgus PBMCs (KDapp=0.28 nM) or the HSC-F T cell line (KDapp=0.39 nM) indicated the HSC-F cell line was a suitable surrogate for ex vivo NHP T cells.
Cynomolgus PBMCs were obtained from fresh ex vivo peripheral blood via density centrifugation and cultured overnight at 37° C./5% CO₂ in the presence of human recombinant IL2 (20 IU/mL; Novartis). Starting from 100 nM, graded doses of the anti-CD3 mAbs were incubated with 100K NHP PBMCs for 0.5 hours at 4° C. in flow staining buffer (SB; PBS/1% BSA/0.01% NaN3) in 96 w V-bottom plates. Following plate washing with SB (150 μL), cell pellets were resuspended in a 5 µg/mL solution of goat (Fab′)₂ anti-mouse IgG (H+L)− APC secondary antibody in SB, incubated at 4° C. (30 min.), washed 1× with SB, and resuspended for flow analysis. The commercial NHP cross-reactive SP34.2 anti-CD3 mAb (BD Biosciences), anti-human OKT-3 IgG2a (Biolegend—data not shown) and non-specific mIgG were employed as controls. 20K live events were acquired on a BD LSRFortessa flow analyzer and mean fluorescence intensities (MFI) calculated after subtraction of secondary antibody alone values. Using GraphPad Prism software, the data were analyzed using a one site specific binding with Hill slope non-linear regression model to calculate KDapp and BMax values (See Table 2).

T1 sequence (Q95LI5 22-198, chain 1 of 3): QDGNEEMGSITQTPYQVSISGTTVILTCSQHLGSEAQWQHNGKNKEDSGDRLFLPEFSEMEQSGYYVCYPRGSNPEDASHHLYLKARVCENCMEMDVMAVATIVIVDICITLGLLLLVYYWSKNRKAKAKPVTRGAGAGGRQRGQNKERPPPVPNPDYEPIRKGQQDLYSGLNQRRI
T1 sequence (Q95LI7 23-181, chain 2 of 3): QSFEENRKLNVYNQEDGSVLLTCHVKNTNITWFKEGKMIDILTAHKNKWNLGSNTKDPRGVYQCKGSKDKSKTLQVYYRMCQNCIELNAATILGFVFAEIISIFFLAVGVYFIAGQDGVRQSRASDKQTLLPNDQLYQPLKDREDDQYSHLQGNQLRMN
T1 sequence (Q95LI8 22-171, chain 3 of 3): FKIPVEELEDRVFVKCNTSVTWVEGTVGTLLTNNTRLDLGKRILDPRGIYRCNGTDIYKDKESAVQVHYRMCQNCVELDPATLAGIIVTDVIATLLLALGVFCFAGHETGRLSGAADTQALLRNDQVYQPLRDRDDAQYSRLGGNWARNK

Point of comparison: B4, Kd 0.21 nM. Against it:
- B1 — 1.9-fold lower, 0.11 nM
- B2 — within 1.5-fold, 0.28 nM
- B3 — within 1.5-fold, 0.25 nM
- B5 — within 1.5-fold, 0.15 nM

The binders below were run against T1, Cynomolgus CD3 (assay: apparent KD (KDapp), flow cytometry titration on cynomolgus HSC-F T cell line).
Procedure: as §1
HSC-F T cells obtained from the Non-Human Primate Reagent Resource (NIH) were maintained in culture in RPMI media containing 20% FBS and 40 IU/mL recombinant human IL2. 100K HSC-F cells in logarithmic cell growth were treated with graded doses of the anti-CD3 mAbs starting at 100 nM in staining buffer (SB; PBS/1% BSA/0.01% NaN3) for 2 hours at 4° C. in 96 w V-bottom plates. Following plate washing with SB, the cell pellets were resuspended with 25 μL of goat (Fab′)₂ anti-mouse IgG (H+L)− APC secondary antibody (final 5 μg/mL), incubated for 30 minutes at 4° C., followed by flow cytometry analysis. The commercial NHP cross-reactive SP34.2 anti-CD3 mAb (BD Biosciences), recombinant anti-human OKT-3 IgG2b (in house produced) and non-specific mIgG were employed as controls. 20K live events were acquired on a BD LSRFortessa flow analyzer and mean fluorescence intensities (MFI) calculated after subtraction of secondary antibody alone values. Using GraphPad Prism software, the data were analyzed using a one site specific binding with Hill slope non-linear regression model to calculate KDapp and BMax values (See Table 2).

Point of comparison: B9, Kd 0.4 nM. Against it:
- B6 — within 1.5-fold, 0.36 nM
- B7 — within 1.5-fold, 0.37 nM
- B2 — within 1.5-fold, 0.39 nM
- B8 — within 1.5-fold, 0.27 nM

The binders below were run against T1, Cynomolgus CD3 (assay: apparent KD (KDapp), flow cytometry titration on fresh cynomolgus PBMCs; second value in brackets, not explained).

With B3 the Kd was 0.26 nM.
